The values that follow come from patent US20250171787, “APTAMERS, PHARMACEUTICAL COMPOSITIONS THEREOF, AND METHODS FOR PREVENTING OR TREATING BCMA-ASSOCIATED DISEASES OR CONDITIONS” (Aptapeutics Limited, published 2025).

First the molecules themselves.
B1: Sample 7 (ssDNA)
DNA: CGTACGGTCGACGCTAGCCCATGGGAATGCAGACCGCAGGCTGGCTGTAGGAGGGATCCGAGCTCCACGTG
B2: Sample 10 (ssDNA)
DNA: CGTACGGTCGACGCTAGCTGTTGCTGTGCAGGAAGAATGCAGATTCCCAACATGGATCCGAGCTCCACGTG
B3: Sample 1 (ssDNA)
DNA: CGTACGGTCGACGCTAGCAAGTATAGACGTGATGCAGGGAATGCAGACCCAGGGGATCCGAGCTCCACGTG
B4: modified 10-3 (XNA)
DNA: CGTACGGTCGACGCTAGCTGTTGCTGTGCAGGAAGAATGCAGATTC
modifications: 2'-OMe on all cytosines; 3' inverted dT (terminal t in listing is the inverted dT)
B5: 10-10 (ssDNA)
DNA: ACGCTAGCTGTTGCTGTGCAGGAAGAATGCAGATTCCCAACATGGATCCGAGCTCCACGTG
B6: 10-12 (ssDNA)
DNA: TTGCTGTGCAGGAAGAATGCAGATTCCCAACATGGATCCGAGCTCCACGTG
B7: 10-4 (ssDNA)
DNA: CGTACGGTCGACGCTAGCTGTTGCTGTGCAGGAAGAATGCAGATTCCCAAC
B8: 10-5 (ssDNA)
DNA: CGTACGGTCGACGCTAGCTGTTGCTGTGCAGGAAGAATGCAGATTCCCAACATGGA
B9: 10-6 (ssDNA)
DNA: CGTACGGTCGACGCTAGCTGTTGCTGTGCAGGAAGAATGCAGATTCCCAACATGGATCCGA
B10: 10-11 (ssDNA)
DNA: AGCTGTTGCTGTGCAGGAAGAATGCAGATTCCCAACATGGATCCGAGCTCCACGTG
B11: 10-7 (ssDNA)
DNA: CGTACGGTCGACGCTAGCTGTTGCTGTGCAGGAAGAATGCAGATTCCCAACATGGATCCGAGCTCC
B12: 10-9 (ssDNA)
DNA: GGTCGACGCTAGCTGTTGCTGTGCAGGAAGAATGCAGATTCCCAACATGGATCCGAGCTCCACGTG

The first series deals with T1, BCMA (TNFRSF17) (Homo sapiens, UniProt Q02223 Q02223:1-54). Kind of series: ELONA; random region only. Particulars: tags: His-tag; label: 5'-biotin. As for the experimental part: (§1) ELONA was used to evaluate the binding affinity of the aptamers. 500 ng of His-tagged recombinant BCMA was used to coat each well of a 96-well microtiter plate via overnight incubation at 4° C. 1 hour of BSA blocking at room temperature was used to cover non-binding sites and was followed by 4 washes with DNA binding buffer for 5 minutes. Varying concentrations of each aptamer was added into each well for 45-minute incubation with gentle shaking. The wells were then washed with wash buffer 4 times, 5 minutes each. 100 μl of streptavidin-HRP (1:10000 in PBST+0.1% BSA) was added into each well for 30-minute incubation. 4 washes with binding buffer were then performed. 50 μl of TMB was added to each well for a 20-minute incubation. 50 μl of 2M H₂SO₄ was used to stop the reaction, followed by measurement of 450 nm absorbance.
T1 sequence (Q02223 1-54, one chain of several): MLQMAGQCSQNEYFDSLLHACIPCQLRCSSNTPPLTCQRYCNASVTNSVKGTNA
(§2) Their binding affinity was evaluated via ELONA. Binding curves were plotted, followed by calculation of the binding affinity.
What is called Kd is the constant that tells how readily two partners part at equilibrium. Low readings indicate a tighter complex, high ones a looser complex. TGTTGCTGTGCAGGAAGAATGCAGATTCCCAACAT (ssDNA) [10-8] had a Kd of 184 nM.

In another series the target is T1, BCMA (TNFRSF17). In words: ELONA; best of the truncations. The conditions noted are these: tags: His-tag; label: 5'-biotin. As for the experimental part:
as §1, §2
On to CGTACGGTCGACGCTAGCTGTTGCTGTGCAGGAAGAATGCAGATTC (ssDNA) [10-3], for which the Kd is 59 nM.

The target in a further series is T1, BCMA (TNFRSF17). Kind of series: ELONA; Kd determined but value only in FIG. 2. The conditions noted are these: tags: His-tag; label: 5'-biotin.
For the molecule B1, the binding result was “binds”. The same measure, in the same setting: for B2 the value was “binds”. Regarding B3, the binding result was “binds”.

The next series deals with T1, BCMA (TNFRSF17). Kind of series: ELONA. Particulars: tags: His-tag.
As to B4, the dissociation constant (Kd) is around 64.2 nM.

For another series, the target named is T1, BCMA (TNFRSF17). In words: ELONA. The conditions noted are these: tags: His-tag; label: 5'-biotin. As for the experimental part:
as §1, §2
Molecule B5 came in with a Kd of 1550 nM. In turn, CGTACGGTCGACGCTAGCTGTTGCTGTGCAGGAAGAATGCA (ssDNA) [10-2] displayed a Kd of 240 nM.

Molecule CGTACGGTCGACGCTAGCTGTTGCTGTGCAGGAAG (ssDNA) [10-1] yielded a Kd of 1290 nM. This Kd lies about 5.4-fold higher than the previous one.

B6 had a Kd of 542 nM. On the same count and under the same terms, for B7 the value was 130 nM; for B8, 579 nM; for B9, 364 nM. Still for that read-out and setting: next, B10: 1590 nM; B11: 65 nM. Same read-out and setting: next, B12: 451 nM.
